Assay results published in US20200317768A1 (published 2020).
Numbering of substitutions follows the chain as printed. Numbers in names are those of the source.

T1: human FcγRIIaR extracellular domain, C-terminal His-tag (human, UniProt P12318 34-217)
T1 construct: also called human FcγRIIa (type R); FcgRIIaR; not shown: His-tag added to the C-terminus
T1 chain: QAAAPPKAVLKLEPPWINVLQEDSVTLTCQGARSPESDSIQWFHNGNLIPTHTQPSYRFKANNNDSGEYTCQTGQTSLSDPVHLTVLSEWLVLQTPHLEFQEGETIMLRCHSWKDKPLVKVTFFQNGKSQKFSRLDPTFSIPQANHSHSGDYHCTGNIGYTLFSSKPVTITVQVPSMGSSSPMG

T2: human FcγRIIaH extracellular domain, C-terminal His-tag (human, UniProt P12318 34-217)
T2 construct: also called human FcγRIIa (type H); FcgRIIaH; not shown: His-tag added to the C-terminus
T2 sequence: T1 chain with R134H

T3: human FcγRIIb extracellular domain, C-terminal His-tag (human, UniProt P31994 43-217)
T3 construct: also called FcgRIIb; not shown: His-tag added to the C-terminus
T3 sequence: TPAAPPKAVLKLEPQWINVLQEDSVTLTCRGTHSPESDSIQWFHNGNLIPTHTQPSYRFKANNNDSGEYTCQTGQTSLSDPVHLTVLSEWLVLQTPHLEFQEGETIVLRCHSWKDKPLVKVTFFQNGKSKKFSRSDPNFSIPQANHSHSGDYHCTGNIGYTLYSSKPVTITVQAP

B1: MS1032LO19-SG1 (MS103240H795-SG1/M103202L1045-SK1) (antibody, human IgG1, kappa)
heavy: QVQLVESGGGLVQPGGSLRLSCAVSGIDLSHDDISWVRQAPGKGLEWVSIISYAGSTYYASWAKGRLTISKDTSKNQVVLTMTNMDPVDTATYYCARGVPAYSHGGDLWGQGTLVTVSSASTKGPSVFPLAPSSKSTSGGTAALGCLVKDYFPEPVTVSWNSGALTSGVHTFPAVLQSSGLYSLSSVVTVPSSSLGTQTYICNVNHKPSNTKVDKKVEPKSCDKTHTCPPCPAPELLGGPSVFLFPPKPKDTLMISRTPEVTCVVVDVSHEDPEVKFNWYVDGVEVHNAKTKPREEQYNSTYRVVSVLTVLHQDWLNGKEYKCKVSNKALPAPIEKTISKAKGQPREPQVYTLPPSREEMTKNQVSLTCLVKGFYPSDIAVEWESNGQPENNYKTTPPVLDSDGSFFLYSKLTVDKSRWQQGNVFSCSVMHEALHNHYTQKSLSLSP
light: DIVMTQSPATLSLSPGERATLSCTTSQSVYHENWLSWFQQKPGQPPKLLIYWASTLAYGVPSRFSGSGSGTDFTLTISSLQPEDAATYYCAGGYGGGRYAFGQGTKVEIKRTVAAPSVFIFPPSDEQLKSGTASVVCLLNNFYPREAKVQWKVDNALQSGNSQESVTEQDSKDSTYSLSSTLTLSKADYEKHKVYACEVTHQGLSSPVTKSFNRGEC
B2: MS103240H795-TT08/M103202L1045-SK1 (antibody, human IgG1, kappa)
heavy: QVQLVESGGGLVQPGGSLRLSCAVSGIDLSHDDISWVRQAPGKGLEWVSIISYAGSTYYASWAKGRLTISKDTSKNQVVLTMTNMDPVDTATYYCARGVPAYSHGGDLWGQGTLVTVSSASTKGPSVFPLAPSSKSTSGGTAALGCLVKDYFPEPVTVSWNSGALTSGVHTFPAVLQSSGLYSLSSVVTVPSSSLGTQTYICNVNHKPSNTKVDKKVEPKSCDKTHTCPPCPAPELLGGDSVFLFPPKPKDVLMISRTPEVTCVVVDVSHEDPEVKFNWYVDGVEVHNAKTKPREEQYNSTYRVVSVLPVLHQDWLNGKEYKCKVSNKALPKPIEKTISKAKGQPREPQVYTLPPSREEMTKNQVSLTCLVKGFYPSDIAVEWESNGQPENNYKTTPPVLDSDGSFFLYSKLTVDKSRWQQGNVFSCSVMHEALHNHYTQKSLSLSP
light: B1 light
notes: CH = SG1 with P238D/T250V/T307P/A330K (EU numbering)
B3: MS103240H795-MY009/M103202L1045-SK1 (antibody, human IgG1, kappa)
heavy: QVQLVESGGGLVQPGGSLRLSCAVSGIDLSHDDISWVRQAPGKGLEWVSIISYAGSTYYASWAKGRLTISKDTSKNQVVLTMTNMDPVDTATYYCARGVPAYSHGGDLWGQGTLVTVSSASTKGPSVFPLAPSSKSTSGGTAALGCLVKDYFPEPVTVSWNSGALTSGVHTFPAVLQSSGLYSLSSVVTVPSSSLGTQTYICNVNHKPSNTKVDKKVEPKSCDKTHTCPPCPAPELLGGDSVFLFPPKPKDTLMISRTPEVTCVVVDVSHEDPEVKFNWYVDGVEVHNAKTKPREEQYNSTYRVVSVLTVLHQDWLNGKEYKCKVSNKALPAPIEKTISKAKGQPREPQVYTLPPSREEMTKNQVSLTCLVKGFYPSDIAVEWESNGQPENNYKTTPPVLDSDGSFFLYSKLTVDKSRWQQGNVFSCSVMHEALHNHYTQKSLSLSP
light: B1 light
notes: CH = SG1 with P238D (EU numbering)
B4: MS103240H795-MY214/M103202L1045-SK1 (antibody, human IgG1, kappa)
heavy: B2 heavy with K332A
light: B1 light
notes: CH = SG1 with P238D/T250V/T307P (EU numbering)
B5: MS103240H795-TT10/M103202L1045-SK1 (antibody, human IgG1, kappa)
heavy: B2 heavy with S269A
light: B1 light
notes: CH = SG1 with P238D/T250V/S267A/T307P/A330K (EU numbering)
B6: MS103240H795-TT12/M103202L1045-SK1 (antibody, human IgG1, kappa)
heavy: B2 heavy with L236Y, S269A
light: B1 light
notes: CH = SG1 with L234Y/P238D/T250V/S267A/T307P/A330K (EU numbering)
B7: MS103240H795-TT09/M103202L1045-SK1 (antibody, human IgG1, kappa)
heavy: B2 heavy with V266I
light: B1 light
notes: CH = SG1 with P238D/T250V/V264I/T307P/A330K (EU numbering)
B8: MS103240H795-TT11/M103202L1045-SK1 (antibody, human IgG1, kappa)
heavy: B2 heavy with L236Y
light: B1 light
notes: CH = SG1 with L234Y/P238D/T250V/T307P/A330K (EU numbering)

Target: T1, human FcγRIIaR extracellular domain, …
Experiment: SPR (BIACORE), antibody captured, soluble FcgR as analyte, 25C
Protocol: (§1) The kinetic analysis of interactions between these antibodies and FcγR was carried out using BIACORE® T200 or BIACORE® 4000 (GE Healthcare). HBS-EP+ (GE Healthcare) was used as the running buffer, and the measurement temperature was set to 25° C. A chip produced by immobilizing Protein A. Protein A/G or mouse anti-human IgG kappa light chain (BD Biosciences) onto a Series S Sensor Chip CM4 or CM5 (GE Healthcare) by the amine-coupling method was used. […] After the measurement, the antibody captured on the chip was washed off by allowing reaction with 10 mM glycine-HCl, pH1.5 and 25 mM NaOH so that the chip was regenerated and used repeatedly. The sensorgrams obtained as measurement results were analyzed by the 1:1 Langmuir binding model using the BIACORE® Evaluation Software to calculate the binding rate constant ka (L/mol/s) and dissociation rate constant kd (l/s), and the dissociation constant KD (mol/L) was calculated from these values. […] Regarding such interactions, KD values were calculated using the following 1:1 binding model described in BIACORE® T100 Software Handbook BR1006-48 Edition AE.
(§2) Human FcγRIIb-enhanced Fc variants with anti-myostatin variable region were constructed and their affinity for human FcγRs was evaluated. […] In addition, substitutions (Q311R/D413K or […]) were also introduced. The variants were expressed using M103202L1045-SK1 as light chain and their affinity to human FcγRs was analyzed according to the method shown in Example 34.

Row | Kd [µM] | Binder
1 | 1.1 | B1
2 | 16 | B2
3 | 23 | B3
4 | 21 | B4
5 | 8.7 | B5
6 | 5 | B6
7 | 14 | B7
8 | 10 | B8

These binders were tested against T2, human FcγRIIaH extracellular domain, … in the same assay as above.
Protocol: as §1, §2

Row | Kd [µM] | Binder
9 | 0.75 | B1
10 | 55 | B2
11 | 73 | B3
12 | 32 | B4
13 | 56 | B5
14 | 20 | B6
15 | 44 | B7
16 | 24 | B8

These binders were tested against T4, human FcγRIIIaV extracellular domain, C-terminal His-tag (human, UniProt P08637 17-208) in the same assay as above.
T4 construct: also called FcgRIIIaV; not shown: His-tag added to the C-terminus
Protocol: as §1, §2

T4 sequence (P08637 17-208 F176V): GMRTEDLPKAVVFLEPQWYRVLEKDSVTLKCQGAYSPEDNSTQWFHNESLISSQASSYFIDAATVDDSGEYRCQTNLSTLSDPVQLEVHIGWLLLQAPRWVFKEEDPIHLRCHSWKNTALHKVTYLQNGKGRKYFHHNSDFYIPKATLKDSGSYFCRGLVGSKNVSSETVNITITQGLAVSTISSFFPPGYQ

Row | Kd [µM] | Binder
17 | 0.81 | B1
18 | 96 | B2
19 | 220 | B3
20 | 150 | B4
21 | 790 | B5
22 | 130 | B6
23 | 170 | B7
24 | 170 | B8

What follows are binders tested against T3, human FcγRIIb extracellular domain, … in the same assay as above.
Protocol: as §1, §2

Row | Kd [µM] | Binder
25 | 0.58 | B1
26 | 0.68 | B2
27 | 1.3 | B3
28 | 1 | B4
29 | 0.63 | B5
30 | 0.49 | B6
31 | 0.29 | B7
32 | 0.52 | B8

Target: T1, human FcγRIIaR extracellular domain, …
Experiment: SPR; KD of SG1 divided by KD of variant;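 also: relative to parent M103205H795-SG1 carrying the SG1 human heavy chain constant region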
Protocol: as §1, §2

Row | KD fold (SG1 = 1) [fold] | Binder
33 | 1 | B1
34 | 0.07 | B2
35 | 0.05 | B3
36 | 0.05 | B4
37 | 0.13 | B5
38 | 0.22 | B6
39 | 0.08 | B7
40 | 0.11 | B8

What follows are binders tested against T2, human FcγRIIaH extracellular domain, … (assay: SPR; KD of SG1 divided by KD of variant;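 also: relative to parent M103205H795-SG1 carrying the SG1 human heavy chain constant region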).
Protocol: as §1, §2

Row | KD fold (SG1 = 1) [fold] | Binder
41 | 1 | B1
42 | 0.014 | B2
43 | 0.01 | B3
44 | 0.023 | B4
45 | 0.013 | B5
46 | 0.038 | B6
47 | 0.017 | B7
48 | 0.031 | B8

What follows are binders tested against T4, human FcγRIIIaV extracellular domain, … (assay: SPR; KD of SG1 divided by KD of variant;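 also: relative to parent M103205H795-SG1 carrying the SG1 human heavy chain constant region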).
Protocol: as §1, §2

Row | KD fold (SG1 = 1) [fold] | Binder
49 | 1 | B1
50 | 0.008 | B2
51 | 0.004 | B3
52 | 0.005 | B4
53 | 0.001 | B5
54 | 0.006 | B6
55 | 0.005 | B7
56 | 0.005 | B8

The binders below were run against T3, human FcγRIIb extracellular domain, … (assay: SPR; KD of SG1 divided by KD of variant;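 also: relative to parent M103205H795-SG1 carrying the SG1 human heavy chain constant region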).
Protocol: as §1, §2

Row | KD fold (SG1 = 1) [fold] | Binder
57 | 1 | B1
58 | 8.5 | B2
59 | 4.5 | B3
60 | 5.8 | B4
61 | 9.2 | B5
62 | 11.8 | B6
63 | 20 | B7
64 | 11.2 | B8
